Results as given in patent US20130316374A1, “BREAST CANCER DIAGNOSTICS” (IMBA - INSTITUT FUR MOLEKULARE BIOTECHNOLOGIE GMBH, priority 2010, published 2013).

B1: RANKL: Receptor Activator of NF-κB Ligand; recombinant murine RANKL used for stimulation (protein, UniProt O35235 139-316, looked up)
Tumor necrosis factor ligand …: FSGAPAMMEGSWLDVAQRGKPEAQPFAHLTINAASIPSGSHKVTLSSWYHDRGWAKISNMTLSNGKLRVNQDGFYYLYANICFRHHETSGSVPTDYLQLMVYVVKTSIKIPSSHNLMKGGSTKNWSGNSEFHFYSINVGGFFKLRAGEEISIQVSNPSLLDPDQDATYFGAFKVQDID

Legend:
RANKL = RANKL expression in purified mammary epithelial cells (qRT-PCR, Western blot); type: in vivo, mouse; conditions: nulliparous wild type females, 3 days after implantation/oral gavage
Protocol: a,b, MPA induces RANKL expression in mammary epithelial cells. Nulliparous wild type females were treated with oral gavage of DMBA or oil vehicle, s.c. implanted with slow-release MPA pellets, or treated with sham surgery. a, RANKL mRNA was determined in purified mammary epithelial cells by qRT-PCR 3 days after implantation/oral gavage. Data are shown as fold change compared to sham treatment+/−sem. n=3 mice per group. b, Expression of soluble (s) RANKL protein (19 kDa) was assayed on cell lysates from purified mammary epithelial cells by Western blot 3 days after treatment with oil vehicle, DMBA, MPA, or sham surgery. β-actin is shown as a loading control. […] Data are shown as percentage of tumor-free mice after the last DMBA challenge. No significant difference was found between the Cre+ and the Cre− control groups. Median tumor onset for Cre^+ controls was 9 days, for Cre^− controls 11 days, and for RANK^Δmam females 30 days after the last DMBA treatment. d, Representative Southern blot of MPA/DMBA-induced mammary tumors derived from RANK^flox/+; MMTV-Cre+ and RANK^flox/Δ; MMTV-Cre+ (RANK^Δmam) females. […]
Total RNA of tumors was prepared using the RNeasy Mini Kit (Qiagen), according to the manufacturer's instructions. Total RNA (2 μg) was subjected to quantitative (q)RT-PCR analysis. […]

[1] = system: primary mouse mammary epithelial cells; test: DNA damage responses (cell cycle arrest, apoptosis) in primary mouse mammary epithelial cells; type: cell-based; conditions: RANKL 1 μg/ml
Protocol: a, Western Blot analysis for γH2AX, phosphorylated (P) Chk1, total Chk1, p53 and β-actin in isolated primary mouse mammary gland epithelial cells in response to γ-irradiation (2 Gray) in the presence (1 μg/ml) or absence of RANKL stimulation. b,c, FACS analysis of propidium iodide (PI) stained b, mammary epithelial cells and c, SKBR3 human breast cancer cells after γ-irradiation (2 Gray) in the absence or presence (1 μg/ml) of RANKL. Data are representative of at least 3 experiments. Apoptotic cells with a DNA content <2n appear in the sub-G1 region. Percent of cells in sub-G1 (M1), G1-phase (M2), S/G2/M-phase (M3) as well as polyploid cells with a DNA content >4n are given for the indicated time points.
a,b, FACS analysis of a, mammary epithelial cells and b, SKBR3 human breast cancer cells incubated with the genotoxic agent doxorubicin (Dox, 1 μM) in the presence (1 μg/ml) or absence of RANKL. Data are representative of at least 3 experiments. Percent of cells in sub-G1 (M1), G1-phase (M2), S/G2/M-phase (M3) as well as polyploid cells with a DNA content >4n are given for 24 and 36 hours after doxorubicin treatment. c, mRNA expression of pro-apoptotic genes Bim, Puma, and Noxa 6 hours after γ-irradiation (2 Gray) in the presence (1 μg/ml) or absence of RANKL stimulation. Data are shown as fold change compared to control (+/−sem). n=3). *P<0.05; **P<0.005 (Student's t-test).
For measurement of cell cycle arrest and apoptosis primary mouse mammary epithelial cells and SKBR3 human breast cancer cells were seeded at a cell-density of 100000 cells/well in a 6-well plate and allowed to grow for 24 hours. Cells where then treated with doxorubicin (1 μM) or γ-irradiation (2 Gray) in the absence or presence of recombinant RANKL (1 μg/ml). Cell cycle arrest and numbers of dead cells were determined using propidium iodine staining. To determine in vivo mammary gland epithelial cell death, control and RANK^Δmam littermate females were γ-irradiated with a total dose of 5 Gray (Gy). Six hours later, mammary glands were isolated and immunostained for active Caspase 3 (Cell Signaling) indicative of apoptosis.

Molecule | RANKL mRNA and protein expression in mammary epithelial cells (RANKL) | γ-irradiation-induced upregulation of Bim, Puma, and Noxa mRNA ([1]; 6 hours after γ-irradiation (2 Gray)) | cell death after DNA damage ([1]; doxorubicin (1 μM)) | early cell cycle arrest after DNA damage ([1]; doxorubicin (1 μM)) | cell death after DNA damage ([1]; γ-irradiation (2 Gray)) | early cell cycle arrest after DNA damage ([1]; γ-irradiation (2 Gray)) | induction of γH2AX and p53 or activation of Chk1 ([1]; γ-irradiation (2 Gray))
CC(=O)O[C@]1(C(C)=O)CC[C@H]2[C@@H]3C[C@H](C)C4=CC(=O)CC[C@]4(C)[C@H]3CC[C@@]21C [MPA, medroxyprogesterone acetate] | induced RANKL mRNA and protein expression | – | – | – | – | – | –
B1 | – | did not occur | marked protection from cell death | did not alter | marked protection from cell death | did not alter | did not alter
